B1: Actin-binding protein WASF1 (Rattus norvegicus (Rat)), Q5BJU7 (parent)
chain: MPLVKRNIDPRHLCHTALPRGIKNELECVTNISLANIIRQLSSLSKYAEDIFGELFNEAHSFSFRVNSLQERVDRLSVSVTQLDPKEEELSLQDITMRKAFRSSTIQDQQLFDRKTLPIPLQETYDVCEQPPPLNVLTPYRDDGKEGLKFYTNPSYFFDLWKEKMLQDTEDKRKEKRKQKQKNLDRPHEPEKVPRAPHDRRREWQKLAQGPELAEDDADLLHKHIEVANGPASHFETRPQTYVDHMDGSYSLSALPFSQMSELLSRAEERVLVRPHEPPPPPPMHAAGDARPTPTCVSSAAGLIENRPQSPAAGRTPVFVSPTPPPPPPPLPSALSTSSLRASMTSTPPPPVPPPPPPPAPALQAPAVPPPPAPLQIAPGVLHPAPPPIAPPLVQPSPPVARAAPVCETVPVHPLPQGEVQGLPPPPPPPPLPPPGIRPSSPVTVAALAHPPSGLHPTPSPAPGPHAPLMPPSPPSQVLPASEPKRHPSTLPVISDARSVLLEAIRKGIQLRKVEEQREQEAKHERIENDVATILSRRIAVEYSDSEDDSEFDEVDWLE

Consider one variant from IntAct's records for PubMed 16530190.

In one assay the parent is B1. The note with it: with gnai3_rat Gnai3, P08753.
Chain of gnai3_rat Gnai3, P08753 (P08753 whole entry): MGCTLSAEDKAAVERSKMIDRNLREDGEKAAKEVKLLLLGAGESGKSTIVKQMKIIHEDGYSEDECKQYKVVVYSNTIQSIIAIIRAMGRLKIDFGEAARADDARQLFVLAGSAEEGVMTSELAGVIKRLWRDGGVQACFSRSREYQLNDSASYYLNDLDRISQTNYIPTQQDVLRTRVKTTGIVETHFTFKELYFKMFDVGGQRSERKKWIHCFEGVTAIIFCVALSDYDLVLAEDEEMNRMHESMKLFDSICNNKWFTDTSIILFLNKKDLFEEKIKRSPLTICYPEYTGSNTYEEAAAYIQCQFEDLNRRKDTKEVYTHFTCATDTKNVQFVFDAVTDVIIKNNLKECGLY
On to MPLVKRNIDPRHLCHTALPRGIKNELECVTNISLANIIRQLSSLSKYAEDIFGELFNEAHSFSFRVNSLQERVDRLSVSVTQLDPKEEELSLQDITMRKAFRSSTIQDQQLFDRKTLPIPLQETYDVCEQPPPLNVLTPYRDDGKEGLKFYTNPSYFFDLWKEKMLQDTEDKRKEKRKQKQKNLDRPHEPEKVPRAPHDRRREWQKLAQGPELAEDDADLLHKHIEVANGPASHFETRPQTYVDHMDGSYSLSALPFSQMSELLSRAEERVLVRPHEPPPPPPMHAAGDARPTPTCVSSAAGLIENRPQSPAAGRTPVFVSPTPPPPPPPLPSALSTSSLRASMTSTPPPPVPPPPPPPAPALQAPAVPPPPAPLQIAPGVLHPAPPPIAPPLVQPSPPVARAAPVCETVPVHPLPQGEVQGLPPPPPPPPLPPPGIRPSSPVTVAALAHPPSGLHPTPSPAPGPHAPLMPPSPPSQVLPASEPKRHPSTLPVISDARSVLLEAIRKGIQLRKVEEAREQEAKHERIENDVATILSRRIAVEYSDSEDDSEFDEVDWLE [Q517A], for which the “effect of a mutation on the interaction” value is listed as “decreasing interaction”.

The next assay covers variants of B1. The note with it: with actb_rat Actb.
MPLVKRNIDPRHLCHTALPRGIKNELECVTNISLANIIRQLSSLSKYAEDIFGELFNEAHSFSFRVNSLQERVDRLSVSVTQLDPKEEELSLQDITMRKAFRSSTIQDQQLFDRKTLPIPLQETYDVCEQPPPLNVLTPYRDDGKEGLKFYTNPSYFFDLWKEKMLQDTEDKRKEKRKQKQKNLDRPHEPEKVPRAPHDRRREWQKLAQGPELAEDDADLLHKHIEVANGPASHFETRPQTYVDHMDGSYSLSALPFSQMSELLSRAEERVLVRPHEPPPPPPMHAAGDARPTPTCVSSAAGLIENRPQSPAAGRTPVFVSPTPPPPPPPLPSALSTSSLRASMTSTPPPPVPPPPPPPAPALQAPAVPPPPAPLQIAPGVLHPAPPPIAPPLVQPSPPVARAAPVCETVPVHPLPQGEVQGLPPPPPPPPLPPPGIRPSSPVTVAALAHPPSGLHPTPSPAPGPHAPLMPPSPPSQVLPASEPKRHPSTLPVISDARSVLLEAIRKGIQLRKVEEAREQEAKHERIENDVATILSRRIAVEYSDSEDDSEFDEVDWLE [Q517A]: the “effect of a mutation on the interaction” value was “decreasing interaction”.

Another assay covers variants of B1. The note with it: with arpc2_human ARPC2, O15144.
Turning to MPLVKRNIDPRHLCHTALPRGIKNELECVTNISLANIIRQLSSLSKYAEDIFGELFNEAHSFSFRVNSLQERVDRLSVSVTQLDPKEEELSLQDITMRKAFRSSTIQDQQLFDRKTLPIPLQETYDVCEQPPPLNVLTPYRDDGKEGLKFYTNPSYFFDLWKEKMLQDTEDKRKEKRKQKQKNLDRPHEPEKVPRAPHDRRREWQKLAQGPELAEDDADLLHKHIEVANGPASHFETRPQTYVDHMDGSYSLSALPFSQMSELLSRAEERVLVRPHEPPPPPPMHAAGDARPTPTCVSSAAGLIENRPQSPAAGRTPVFVSPTPPPPPPPLPSALSTSSLRASMTSTPPPPVPPPPPPPAPALQAPAVPPPPAPLQIAPGVLHPAPPPIAPPLVQPSPPVARAAPVCETVPVHPLPQGEVQGLPPPPPPPPLPPPGIRPSSPVTVAALAHPPSGLHPTPSPAPGPHAPLMPPSPPSQVLPASEPKRHPSTLPVISDARSVLLEAIRKGIQLRKVEEAREQEAKHERIENDVATILSRRIAVEYSDSEDDSEFDEVDWLE [Q517A], the “effect of a mutation on the interaction” value is “decreasing interaction”.
